Measured values taken from article PMC7199964, “Grifolin, neogrifolin and confluentin from the terricolous polypore Albatrellus flettii suppress KRAS expression in human colon cancer cells”.

Experiments:
IMP1 wild type [1] = target: T1, IMP1 wild type (UniProt Q9NZI8 1-577); test: fluorescence polarization; FP: 300 nM IMP1, 10 nM probe (inhibitor assays), binding buffer stock 50 mM Tris-Cl pH 7.4, 12.5 mM EDTA pH 8, 25% glycerol, 0.01% Triton-X, 37 C 30 min; EMSA:; conditions: protein: recombinant; label: 3' 6-FL (fluorescein)
T1 sequence (Q9NZI8 whole entry): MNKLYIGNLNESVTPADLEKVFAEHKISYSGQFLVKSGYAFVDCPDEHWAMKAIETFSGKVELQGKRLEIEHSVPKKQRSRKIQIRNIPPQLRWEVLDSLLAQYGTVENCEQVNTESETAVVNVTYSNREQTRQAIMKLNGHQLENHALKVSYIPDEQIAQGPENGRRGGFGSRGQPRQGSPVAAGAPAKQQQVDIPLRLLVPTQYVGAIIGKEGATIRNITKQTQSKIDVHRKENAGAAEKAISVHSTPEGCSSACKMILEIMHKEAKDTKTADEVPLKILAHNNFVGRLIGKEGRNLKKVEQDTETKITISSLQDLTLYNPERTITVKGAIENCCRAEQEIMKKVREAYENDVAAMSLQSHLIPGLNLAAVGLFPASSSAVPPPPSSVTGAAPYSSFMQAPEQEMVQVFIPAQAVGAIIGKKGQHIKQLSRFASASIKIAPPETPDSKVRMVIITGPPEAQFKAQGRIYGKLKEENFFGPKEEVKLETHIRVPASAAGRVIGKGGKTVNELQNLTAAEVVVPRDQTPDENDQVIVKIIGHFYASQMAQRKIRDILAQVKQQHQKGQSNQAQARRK

KH3&4 IMP1 (KH34) = KH3&4 IMP1 (KH34) (UniProt Q9NZI8 405-553); test: fluorescence polarization; confluentin, no effect; FP: 300 nM IMP1, 10 nM probe (inhibitor assays), binding buffer stock 50 mM Tris-Cl pH 7.4, 12.5 mM EDTA pH 8, 25% glycerol, 0.01% Triton-X, 37 C 30 min; EMSA:; conditions: protein: recombinant; label: 3' 6-FL (fluorescein)
Chain of KH3&4 IMP1 (KH34) (Q9NZI8 405-553): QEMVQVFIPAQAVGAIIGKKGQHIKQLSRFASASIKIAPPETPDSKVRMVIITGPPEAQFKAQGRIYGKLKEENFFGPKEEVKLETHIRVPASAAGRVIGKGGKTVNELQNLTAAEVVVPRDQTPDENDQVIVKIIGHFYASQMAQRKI

IMP1 wild type [2] = target: T1, IMP1 wild type; test: fluorescence polarization; grifolin up to 100 uM, no effect; FP: 300 nM IMP1, 10 nM probe (inhibitor assays), binding buffer stock 50 mM Tris-Cl pH 7.4, 12.5 mM EDTA pH 8, 25% glycerol, 0.01% Triton-X, 37 C 30 min; EMSA:; conditions: protein: recombinant; label: 3' 6-FL (fluorescein)
KH1to4 IMP1 = KH1to4 IMP1 (UniProt Q9NZI8 195-553); test: fluorescence polarization; FP: 300 nM IMP1, 10 nM probe (inhibitor assays), binding buffer stock 50 mM Tris-Cl pH 7.4, 12.5 mM EDTA pH 8, 25% glycerol, 0.01% Triton-X, 37 C 30 min; EMSA:; conditions: protein: recombinant; label: 3' 6-FL (fluorescein)
Chain of KH1to4 IMP1 (Q9NZI8 195-553): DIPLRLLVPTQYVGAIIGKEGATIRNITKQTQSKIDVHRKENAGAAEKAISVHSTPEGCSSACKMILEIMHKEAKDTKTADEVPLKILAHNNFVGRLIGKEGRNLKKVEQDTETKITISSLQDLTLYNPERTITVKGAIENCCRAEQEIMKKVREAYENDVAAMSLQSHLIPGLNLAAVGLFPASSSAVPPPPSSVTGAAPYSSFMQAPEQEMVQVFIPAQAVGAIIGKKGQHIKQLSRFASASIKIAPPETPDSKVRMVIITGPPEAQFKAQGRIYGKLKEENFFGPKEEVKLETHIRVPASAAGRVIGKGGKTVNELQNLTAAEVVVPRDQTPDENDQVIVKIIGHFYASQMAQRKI

IMP1 wild type [3] = target: T1, IMP1 wild type; test: EMSA; IMP1 0-540 nM; smallest region with affinity; FP: 300 nM IMP1, 10 nM probe (inhibitor assays), binding buffer stock 50 mM Tris-Cl pH 7.4, 12.5 mM EDTA pH 8, 25% glycerol, 0.01% Triton-X, 37 C 30 min; EMSA:; conditions: protein: recombinant; (radiolabeled)

AAAUUAGGGCCCAAUUAAUAAUCAGCAAGAAUUUGAUCG (ssRNA) [39-nt CD44 RNA (nts 2862-2900)]
binding result (IMP1 wild type [1]): binds

AUGGAGAAACCUGUCUCUUGGAUAUUCUCGACACAGCAGGUCAU (ssRNA) [44-nt KRAS RNA (nts 142-185)]
binding result (KH3&4 IMP1 (KH34)): binds
binding result (IMP1 wild type [2]): binds
binding result (KH1to4 IMP1): binds

GAAACCUGUCUCUUGGAUAUUCUCGACACAGCAGGUCAU (ssRNA) [39-nt KRAS RNA nts 147-185]
binding result (IMP1 wild type [3]): binds
